T1: cynomolgus (Macaca fascicularis) ST2L extracellular domain with C-terminal His6 tag (Macaca fascicularis (cynomolgus), UniProt Q01638 19-321 (human entry))
T1 construct: also called cyno ST2L-ECD; cynoST2L-ECD
T1 chain: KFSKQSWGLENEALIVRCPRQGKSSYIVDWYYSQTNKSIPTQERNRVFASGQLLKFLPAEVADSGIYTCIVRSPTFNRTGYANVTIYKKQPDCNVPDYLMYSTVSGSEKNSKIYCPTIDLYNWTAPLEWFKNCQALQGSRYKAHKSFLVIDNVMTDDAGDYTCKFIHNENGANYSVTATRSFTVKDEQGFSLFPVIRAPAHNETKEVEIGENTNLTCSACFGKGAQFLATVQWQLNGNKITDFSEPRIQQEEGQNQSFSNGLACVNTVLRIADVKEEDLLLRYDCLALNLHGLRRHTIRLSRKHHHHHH

T2: human ST2L extracellular domain with C-terminal His6 tag (human, UniProt Q01638 19-328)
T2 construct: also called huST2L-ECD; ST2L-ECD
T2 sequence: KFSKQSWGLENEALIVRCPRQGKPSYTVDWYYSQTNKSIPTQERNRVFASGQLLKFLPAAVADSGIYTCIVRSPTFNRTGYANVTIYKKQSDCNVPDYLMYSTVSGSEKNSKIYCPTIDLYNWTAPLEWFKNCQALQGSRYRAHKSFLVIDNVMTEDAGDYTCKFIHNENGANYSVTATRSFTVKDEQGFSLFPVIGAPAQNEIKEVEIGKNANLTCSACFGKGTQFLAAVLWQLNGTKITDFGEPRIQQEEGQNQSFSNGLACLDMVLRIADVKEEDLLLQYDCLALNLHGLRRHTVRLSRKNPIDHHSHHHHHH

T3: human ST2L, full length, on cells (human, UniProt Q01638 19-556)
T3 sequence: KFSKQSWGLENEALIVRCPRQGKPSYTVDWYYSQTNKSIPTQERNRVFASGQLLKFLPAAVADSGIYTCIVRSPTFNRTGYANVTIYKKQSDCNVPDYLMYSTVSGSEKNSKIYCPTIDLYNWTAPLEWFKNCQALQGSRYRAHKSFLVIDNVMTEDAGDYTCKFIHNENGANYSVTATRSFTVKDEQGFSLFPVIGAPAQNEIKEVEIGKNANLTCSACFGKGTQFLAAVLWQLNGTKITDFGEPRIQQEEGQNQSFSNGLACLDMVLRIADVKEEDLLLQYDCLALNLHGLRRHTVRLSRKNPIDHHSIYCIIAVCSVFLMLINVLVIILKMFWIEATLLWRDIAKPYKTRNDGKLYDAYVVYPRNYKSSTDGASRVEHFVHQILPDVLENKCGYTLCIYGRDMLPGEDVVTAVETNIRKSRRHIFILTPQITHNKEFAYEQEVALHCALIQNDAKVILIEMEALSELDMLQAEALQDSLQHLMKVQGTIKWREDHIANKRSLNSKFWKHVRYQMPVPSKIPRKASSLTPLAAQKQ

T4: mouse ST2L extracellular domain (mouse, UniProt P14719 28-326)
T4 construct: also called mouse ST2L-ECD; muST2L-ECD
T4 sequence: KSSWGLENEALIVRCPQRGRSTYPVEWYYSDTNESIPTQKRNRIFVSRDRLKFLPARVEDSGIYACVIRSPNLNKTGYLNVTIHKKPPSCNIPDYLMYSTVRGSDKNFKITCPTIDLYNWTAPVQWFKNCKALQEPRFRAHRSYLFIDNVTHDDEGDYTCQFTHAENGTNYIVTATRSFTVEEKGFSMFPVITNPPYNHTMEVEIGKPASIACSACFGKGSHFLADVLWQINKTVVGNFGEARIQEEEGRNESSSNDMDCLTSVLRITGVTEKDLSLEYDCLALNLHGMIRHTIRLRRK

B1: STLM62 (antibody, human IgG2, V domains shown)
VH: EVQLQQSVAELVRPGASVKLSCTASAFNIKDDYMHWVKQRPEQGLEWIGRIDPAIGNTEYAPKFQDKATMTADTSSNTAYLQLSSLTSEDTAVYYCALGDFYAMDYWGQGTSVTVSS
VL: ETTVTQSPASLSVATGEKVTIRCITNTDIDDVIHWYQQKPGEPPKLLISEGNTLRPGVPSRFSSSGYGTDFVFTIENTLSEDVADYYCLQSDNMLTFGAGTKLELK
notes: Mouse hybridoma C2494 cloned into human IgG2 background (STLM62); also called C2494
B2: STLM15 (antibody, human IgG2, V domains shown)
VH: EVQLQESGPGLVKPSQSLSLTCTVTGFSITSDYAWNWIRQFPGSKLEWMGFISYSGDTSFNPSLKSRISVTRDTSKNQFFLQLNSVTTEDTATYYCASYDGYSFDYWGQGTTLTVSS
VL: DIVLTQSPASLAISLGQRATISCRASKSVSTSGSSYMFWYQQKPGQPPKLLIYLASNLESGVPARFSGSGSGTDFTLNIHPVEEEDAAAYYCQHSREIPYTFGGGTKLEIK
notes: Mouse hybridoma C2244 cloned into human IgG2 background (STLM15); also called C2244
B3: C2494 Fab with D101aA (Chothia) substitution in VH (Fab, V domains shown)
VH: B1 VH with D105A
VL: B1 VL
B4: ST2M48 (antibody, V domains shown)
VH: EVQLVQSGAEVKKPGESLKISCKGSGYSFTSYWIGWVRQMPGKGLEWMGIIYPGDSYTRYSPSFQGQVTISADKSISTAYLQWSSLKASDTAMYYCARLSGRFDYWGQGTLVTVSS
VL: EIVLTQSPATLSLSPGERATLSCRASQSVRDALAWYQQKPGQAPRLLIYFASNRATGIPARFSGSGSGTDFTLTISSLEPEDFAVYYCQQFNTWPITFGQGTKVEIK
notes: Phage-derived Fab converted to IgG
B5: ST2M49 (antibody, V domains shown)
VH: B4 VH with L99I, S100G, R102M
VL: B4 VL with R30A, D31N, F50K, F91Y, N92Y, T93G
notes: as for B4
B6: ST2M51 (antibody, V domains shown)
VH: QVQLVQSGAEVKKPGSSVKVSCKASGGTFSSYAISWVRQAPGQGLEWMGGIIPIFGTANYAQKFQGRVTITADESTSTAYMELSSLRSEDTAVYYCARDTPQLDYWGQGTLVTVSS
VL: not shown
notes: as for B4
B7: C2521 (antibody, V domains shown)
VH: QIQLQQSGPELVRPGTSVKISCKASGYTFLTYWMNWVKQRPGQGLEWIGQIFPASGSTYYNEMFKDKATLTVDTSSSTAYMQLSSLTSEDTAVYFCARSENIYYINFQYYFAYWGQGTTLTVSS
VL: ILLTQSPAILSVSPGERVSFSCRASQNIGTRMHWYQQRTNGSPRLLIKYASESISGIPSRFSGSGSGTDFTLTISSVESEDIADYYCQQSNTWPFTFGSGTKLEIK
notes: Mouse hybridoma antibody; also called C2521A
B8: C2519 (antibody, V domains shown)
VH: EFQLQQSGPELVKPGASVKISCKASGYSFTDYNMNWVKQSHGKSLEWIGNINPYYGSTTYNQKFKGKATLTVDKSSNTAYMHLNSLTSEDSAVYYCAREGDTYLAWFAYWGQGTLVTVSA
VL: DVLMTQTPLSLPVSLGDQASISCRSSQSIVYSNGNTYLEWYLQKPGQSPKLLIYKVSNRFSGVPDRFSGSGSGTDFTLKISRVEAEDLGVYYCFQGSHVPPTFGGGTKLEIK
notes: Mouse hybridoma antibody; also called C2519A

The text below walks through data of US20170066831A1 (Janssen / Centocor, published 2017).

Substitutions are numbered along the chain they refer to. Numbers in names are those of the source.

Broadly, the Kd is the concentration at which binding is half-saturated. The term koff denotes the first-order rate constant of dissociation. One may read the kon as the rate constant with which the complex forms. The low end stands for slower complex formation, the high end for faster complex formation. As usually defined, the IC50 is the concentration at which inhibition is half-maximal.

The first assay deals with T1, cynomolgus (Macaca fascicularis) ST2L …. The assay can be described thus: ProteOn SPR, mAb captured, ST2L-ECD in solution. How it is done:
(§1) The affinities were analyzed by ProteOn. The experiments were performed at 25° C. using ProteOn's PBS-T-E buffer (PBS, 0.005% P20 and 3 mM EDTA) as running buffer. […] Mab capture was followed by injection of ST2L-ECD from 0.024-15 nM (5-fold dilutions) for 4 min (200 μL at 50 μL/min). The dissociation was monitored for 30 minutes for all reaction. Regeneration was performed using two 15 sec pulses of 10 mM glycine pH1.5. The data was fitted to a 1:1 with baseline drift model.
(§2) Association rates for the samples are fast, the langmuir with mass transfer model was used for curve fitting and estimation of Affinity. All of the samples had faster off rates than the parental clone and control Mab. The difference in off rate was the primary contributor to the lower affinity of the HFA variants when compared to the parent antibody.
Regarding B1, the Kd worked out at 0.0123 nM, the koff was 0.000457 s⁻¹ and the kon amounted to 3.84e+07 M⁻¹ s⁻¹.

The next assay deals with T2, human ST2L extracellular domain with …. Nature of the assay: ProteOn SPR, mAb captured, ST2L-ECD in solution. How it is done:
as §1, §2
On to B1, for which the Kd was determined as 0.00867 nM, the koff turned out to be 0.000159 s⁻¹ and the kon came out at 1.84e+07 M⁻¹ s⁻¹.

Another assay has as its target T3, human ST2L, full length, on cells. The assay can be described thus: cell-based or functional assay.
With B1, the “RGA IC50” value came out at 0.11 µg/mL.

In the next assay the target is T2, human ST2L extracellular domain with …. Nature of the assay: MSD competition on coated ST2L-ECD; 30 nM sulfo-tag labeled C2244 Fab displaced by unlabeled competitor. How it is done: Competition binding assays were performed to evaluate different binding epitope groups for anti-ST2L mAbs. 5 μl (10 μg/ml) of ST2L-ECD protein was coated on MSD HighBind plate (Meso Scale Discovery, Gaithersburg, Md.) per well for 2 hr at room temperature. One-hundred and fifty microliters of 5% MSD Blocker A buffer (Meso Scale Discovery, Gaithersburg, Md.) was added to each well and incubated for 2 hr at room temperature. Plates were washed three times with 0.1 M HEPES buffer, pH 7.4, followed by the addition of the mixture of the MSD fluorescence dye (sulfo tag, NHS ester) labeled individual anti-ST2L antibody with different competitors. Labeled antibody, 10 or 30 nM, was incubated with increasing concentrations of competitor antibodies, from 1 nM to 2 or 5 μM, and then added to the designated wells in a volume of 25 μL mixture. After 2-hour incubation with gentle shaking at room temperature, plates were washed 3 times with 0.1M HEPES buffer (pH 7.4). MSD Read Buffer T was diluted with distilled water (4-fold) and dispensed at a volume of 150 μL/well and analyzed with a SECTOR Imager 6000.
Take B2: the “IC50 (read off the curve)” value is approximately 90 nM.
For the molecule B1, the “IC50 (read off the curve)” value was approximately 100 nM.

A further assay shares this target. Nature of the assay: Fab binding to ST2L, method not detailed.
With B3, the “fold decrease of koff against C2494” value was approximately 4 fold.

A further assay concerns the target T4, mouse ST2L extracellular domain. The assay can be described thus: domain binding assay. How it is done:
Antibody binding to ST2L domain I, II and III was determined using standard capture ELISA assay using electrochemiluminescent detection format (Meso-Scale Discovery (MSD) technology). 10 μg/mL of each antibody was coated onto each well of an MSD HighBind plate (5 μL/well) for 2 hr at room temperature. […] The plate was covered with aluminum foil and incubated for 1 hr at room temperature with gentle shaking. The plate was then washed 3 times with HEPES wash buffer. MSD read buffer (150 μl) was added to each well, and the plate was then read using an MSD Sector Imager 6000.
Take B4: the binding result is given as “binds”.
In the case of B5, the binding result is “binds”.
For the molecule B6, the binding result is given as “binds”.

The next assay concerns the target T2, human ST2L extracellular domain with …. Nature of the assay: RLB ELISA: biotinylated IL-33 on coated huST2L-ECD, antibody titrated; tested as a hybridoma. In general terms: ELISA stands for enzyme-linked immunosorbent assay.
The molecule B1 returned a half-inhibitory concentration (IC50) of 0.7 µg/mL.

Another assay addresses T1, cynomolgus (Macaca fascicularis) ST2L …. Nature of the assay: SPR, mAb captured, ST2L-ECD in solution.
As for B2, the affinity, expressed as Kd, was 0.011 nM; the koff turned out to be 5.3e-05 s⁻¹; the on-rate (kon) came out at 4.81e+06 M⁻¹ s⁻¹.
In turn, B4 showed a Kd of 0.257 nM, a dissociation rate constant (koff) of 0.00265 s⁻¹ and a kon of 1.03e+07 M⁻¹ s⁻¹.
In turn, B5 showed a Kd of 0.266 nM, an off-rate (koff) of 0.0124 s⁻¹ and a kon of 4.66e+07 M⁻¹ s⁻¹.
With B7, binding was put at a Kd of 3.71 nM, the off-rate constant (koff) was 0.00166 s⁻¹ and the on-rate (kon) turned out to be 447000 M⁻¹ s⁻¹.
In turn, B6 had a dissociation constant Kd of 0.076 nM, a koff of 0.00336 s⁻¹ and an on-rate constant (kon) of 4.42e+07 M⁻¹ s⁻¹.
Turning to B1, the dissociation constant (Kd) was 0.012 nM, the koff was 0.000539 s⁻¹ and the kon stood at 4.51e+07 M⁻¹ s⁻¹.
On to B8, for which the Kd amounted to 44.8 nM, the off-rate constant (koff) came out at 0.0032 s⁻¹ and the kon is 71400 M⁻¹ s⁻¹.

In a further assay the target is T2, human ST2L extracellular domain with …. The assay can be described thus: SPR, mAb captured, ST2L-ECD in solution. (In general: In SPR one partner is held on a chip, and binding of the other changes the refractive index at the surface.)
In the case of B2, the affinity, expressed as Kd, was 0.042 nM; the koff stood at 4.25e-05 s⁻¹; the association rate constant (kon) came to 1.02e+06 M⁻¹ s⁻¹.
B4 registered a Kd of 0.056 nM, a koff of 7.33e-05 s⁻¹ and a kon of 1.32e+06 M⁻¹ s⁻¹.
In turn, B5 showed an equilibrium dissociation constant (Kd) of 0.101 nM, an off-rate constant (koff) of 0.000161 s⁻¹ and an on-rate (kon) of 1.59e+06 M⁻¹ s⁻¹.
B7 displayed a Kd of 0.079 nM, a koff of 4.9e-05 s⁻¹ and an on-rate constant (kon) of 618000 M⁻¹ s⁻¹.
Molecule B6 came in with a dissociation constant Kd of 0.038 nM, a koff of 4.87e-05 s⁻¹ and a kon of 1.29e+06 M⁻¹ s⁻¹.
Consider B1, for which binding was characterised by a dissociation constant (Kd) of 0.028 nM, the dissociation rate constant (koff) amounted to 0.000119 s⁻¹ and the on-rate constant (kon) was found to be 4.26e+06 M⁻¹ s⁻¹.
In the case of B8, binding was put at a Kd of 0.18 nM, the koff stood at 8.7e-05 s⁻¹ and the kon amounted to 483000 M⁻¹ s⁻¹.
